The target in the test is T1, 人Claudin 18.2 (紧密连接蛋白-18.2) (human).
T1 construct: Full-length protein stably expressed on HEK293 or NIH-3T3 cells; also called 紧密连接蛋白18剪接变体2
The test is described as follows: flow cytometry on HEK293-Claudin 18.2 stable cells, recombinant antibody titrated from 600 nM in 3-fold steps. Background: In flow cytometry, cells or beads pass a laser one at a time.

T1 sequence (chain, as listed by the source limits assumed): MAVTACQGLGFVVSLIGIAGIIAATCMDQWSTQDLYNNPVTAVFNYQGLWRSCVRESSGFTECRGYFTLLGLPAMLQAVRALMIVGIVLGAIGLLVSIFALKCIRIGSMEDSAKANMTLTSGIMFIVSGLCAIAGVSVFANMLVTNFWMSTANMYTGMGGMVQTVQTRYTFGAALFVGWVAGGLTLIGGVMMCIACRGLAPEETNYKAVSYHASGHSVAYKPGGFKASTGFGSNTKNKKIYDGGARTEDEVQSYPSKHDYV

B1: 4F6-G11 (antibody, V domains shown)
VH: DVQLVESGGGLVQPGGSRKLSCGASGFTFSSFGMHWVRQAPEKGLEWVAYISSDSSTKHYADIVKGRFTVSRDNPRNTLFLQMTSLGSEDTAIYYCARLRRGGNALDYWGQGTSVTVSS
VL: DIVMTQSPSFLTVTAGEKVTMSCRSSQSLLNSGNQRNYLTWYQHKPGQSPKLLIYWASTRESGVPDRFTGSGSGTTFTLTISSVQPEDLAVFYCQNNYYFPFTFGSGTKLEIR
notes: Mouse monoclonal antibody; also called 4F6-Gl1; 重组抗体4F6-G11
Turning to B1, the concentration giving a half-maximal response (EC50) (usually the concentration giving half of the maximal effect) was found to be 1.18 nM.

B2: 3H2-C5 (antibody, V domains shown)
VH: DVQLVESGGGLLQPGGSRKLSCAASGFSFSNFGMHWFRQAPEKGLEWVAFISGGSSPIYYADTVKGRFTISRDNPTNTLFLQMTSLRSEDTAMYYCARFRRGGNAMDYWGQGTSVTVSS
VL: DIVMTQSPSSLTVTAREKVTMSCKSSQSLFNSGNQRNYLTWYQQKPGQPPKLLIYWASTRESGVPDRFTGSGSGTDFTLTIRSVQAEDLAVYYCQNSYSYPFTLGSGTKLEIK
notes: Mouse monoclonal antibody; also called 抗体3H2-C5; 重组抗体3H2-C5
For the molecule B2, the EC50 is 1.01 nM.
